Test results as given in US20160193299A1, “MODIFIED NUCLEOSIDE, NUCLEOTIDE, AND NUCLEIC ACID COMPOSITIONS” (Moderna Therapeutics, Inc., priority 2011, published 2016).

Experiments:
[1] = test system: G-CSF; test: Example 19 LNP formulations in mice, serum G-CSF ELISA; type: in vivo; conditions: for G-CSF Serum Concentration: mice IV (n=4); for G-CSF protein expression detectable at least out to: mice IV
Experimental: Formulations, listed in Table 31, were characterized by particle size, zeta potential, and encapsulation.
LNP formulations, shown in Table 31 (above), were administered to mice (n=4) intravenously (IV) at a single modified mRNA dose 0.05 mg/kg or 0.005 mg/kg. There was also 3 control groups of mice (n=4) that were untreated. The mice were bled at 2 hours, 8 hours, 24 hours, 48 hours and 72 hours after they were administered with G-CSF or EPO modified mRNA formulations to determine the protein expression. Protein expression of G-CSF and EPO were determined using ELISA.

[2] = test system: hemoglobin (HGB); test: Example 22 non-human primate study, hemoglobin (HGB); type: in vivo, cynomolgus monkey
Experimental: (§1) LNP formulations, shown in Table 31 (above), were administered to non-human primates (NHP) (cynomolgus monkey) (n=2) as intravenous injection (IV). The NHP were administered a single modified mRNA IV dose of 0.5 mg/kg, 0.05 mg/kg or 0.005 mg/kg of G-CSF or EPO in a dose volume of 0.5 mL/kg. The NHPs were bled before dosing with the modified mRNA LNP formulations to determine protein expression in the serum and a baseline complete blood count. After administration with the G-CSF modified mRNA formulation the NHP were bled at 8, 24, 48 and 72 hours to determined protein expression. After administration with the EPO modified mRNA formulation the NHP were bled at 8, 24, 48, 72 hours and 7 days to determined protein expression.

[3] = test system: red blood cell (RBC); test: Example 22 non-human primate study, red blood cell (RBC) count; type: in vivo, cynomolgus monkey; conditions: Female NHP
Experimental: as §1

B1: G-CSF: human G-CSF mRNA SEQ ID NO: 6, polyA ~160 nt, Cap1, fully modified with 5-methylcytosine and pseudouridine (nucleic acid, listed as Homo sapiens)
chain: GGGAAAUAAGAGAGAAAAGAAGAGUAAGAAGAAAUAUAAGAGCCACCAUGGCCGGUCCCGCGACCCAAAGCCCCAUGAAACUUAUGGCCCUGCAGUUGCUGCUUUGGCACUCGGCCCUCUGGACAGUCCAAGAAGCGACUCCUCUCGGACCUGCCUCAUCGUUGCCGCAGUCAUUCCUUUUGAAGUGUCUGGAGCAGGUGCGAAAGAUUCAGGGCGAUGGAGCCGCACUCCAAGAGAAGCUCUGCGCGACAUACAAACUUUGCCAUCCCGAGGAGCUCGUACUGCUCGGGCACAGCUUGGGGAUUCCCUGGGCUCCUCUCUCGUCCUGUCCGUCGCAGGCUUUGCAGUUGGCAGGGUGCCUUUCCCAGCUCCACUCCGGUUUGUUCUUGUAUCAGGGACUGCUGCAAGCCCUUGAGGGAAUCUCGCCAGAAUUGGGCCCGACGCUGGACACGUUGCAGCUCGACGUGGCGGAUUUCGCAACAACCAUCUGGCAGCAGAUGGAGGAACUGGGGAUGGCACCCGCGCUGCAGCCCACGCAGGGGGCAAUGCCGGCCUUUGCGUCCGCGUUUCAGCGCAGGGCGGGUGGAGUCCUCGUAGCGAGCCACCUUCAAUCAUUUUUGGAAGUCUCGUACCGGGUGCUGAGACAUCUUGCGCAGCCGUGAAGCGCUGCCUUCUGCGGGGCUUGCCUUCUGGCCAUGCCCUUCUUCUCUCCCUUGCACCUGUACCUCUUGGUCUUUGAAUAAAGCCUGAGUAGGAAG
modifications: polyA ~160, Cap1, 5mC/pseudouridine modified
G-CSF Serum Concentration ([1]; 0.005 mg/kg, 2 hours): 3,447.8 pg/ml
G-CSF Serum Concentration ([1]; 0.005 mg/kg, 8 hours): 11,454.0 pg/ml
G-CSF Serum Concentration ([1]; 0.005 mg/kg, 24 hours): 4,960.2 pg/ml
G-CSF Serum Concentration ([1]; 0.005 mg/kg, 48 hours): 686.4 pg/mL
G-CSF Serum Concentration ([1]; 0.05 mg/kg, 2 hours): 20,951.4 pg/ml
G-CSF Serum Concentration ([1]; 0.05 mg/kg, 8 hours): 70,012.8 pg/ml
G-CSF Serum Concentration ([1]; 0.05 mg/kg, 24 hours): 19,356.2 pg/ml
G-CSF Serum Concentration ([1]; 0.05 mg/kg, 48 hours): 1,963.0 pg/ml
G-CSF Serum Concentration ([1]; 0.05 mg/kg, 72 hours): 47.3 pg/mL
G-CSF protein expression detectable at least out to ([1]; 0.005 mg/kg): ≥ 48 h
G-CSF protein expression detectable at least out to ([1]; 0.05 mg/kg): ≥ 72 h
HGB ([2]; Female NHP, 0.005 mg/kg, 14/18 days): 129 g/L
HGB ([2]; Female NHP, 0.005 mg/kg, 24 hours): 127 g/L
HGB ([2]; Female NHP, 0.005 mg/kg, 3 days): 127 g/L
HGB ([2]; Female NHP, 0.005 mg/kg, 7 days): 129 g/L
HGB ([2]; Female NHP, 0.005 mg/kg, Pre-dose): 129 g/L
HGB ([2]; Female NHP, 0.05 mg/kg, 14/18 days): 123 g/L
HGB ([2]; Female NHP, 0.05 mg/kg, 24 hours): 117 g/L
HGB ([2]; Female NHP, 0.05 mg/kg, 3 days): 115 g/L
HGB ([2]; Female NHP, 0.05 mg/kg, 7 days): 116 g/L
HGB ([2]; Female NHP, 0.05 mg/kg, Pre-dose): 129 g/L
HGB ([2]; Female NHP, 0.5 mg/kg, 14/18 days): 113 g/L
HGB ([2]; Female NHP, 0.5 mg/kg, 24 hours): 112 g/L
HGB ([2]; Female NHP, 0.5 mg/kg, 3 days): 114 g/L
HGB ([2]; Female NHP, 0.5 mg/kg, 7 days): 116 g/L
HGB ([2]; Female NHP, 0.5 mg/kg, Pre-dose): 129 g/L
HGB ([2]; Male NHP, 0.005 mg/kg, 14/18 days): 118 g/L
HGB ([2]; Male NHP, 0.005 mg/kg, 24 hours): 117 g/L
HGB ([2]; Male NHP, 0.005 mg/kg, 3 days): 116 g/L
HGB ([2]; Male NHP, 0.005 mg/kg, 7 days): 116 g/L
HGB ([2]; Male NHP, 0.005 mg/kg, Pre-dose): 128 g/L
HGB ([2]; Male NHP, 0.05 mg/kg, 14/18 days): 134 g/L
HGB ([2]; Male NHP, 0.05 mg/kg, 24 hours): 122 g/L
HGB ([2]; Male NHP, 0.05 mg/kg, 3 days): 126 g/L
HGB ([2]; Male NHP, 0.05 mg/kg, 7 days): 126 g/L
HGB ([2]; Male NHP, 0.05 mg/kg, Pre-dose): 137 g/L
HGB ([2]; Male NHP, 0.5 mg/kg, 14/18 days): 98 g/L
HGB ([2]; Male NHP, 0.5 mg/kg, 24 hours): 113 g/L
HGB ([2]; Male NHP, 0.5 mg/kg, 3 days): 118 g/L
HGB ([2]; Male NHP, 0.5 mg/kg, 7 days): 115 g/L
HGB ([2]; Male NHP, 0.5 mg/kg, Pre-dose): 133 g/L
RBC ([3]; 0.005 mg/kg, 14/18 days): 5.34 10^12/L
RBC ([3]; 0.005 mg/kg, 24 hours): 5.35 10^12/L
RBC ([3]; 0.005 mg/kg, 3 days): 5.24 10^12/L
RBC ([3]; 0.005 mg/kg, 7 days): 5.34 10^12/L
RBC ([3]; 0.005 mg/kg, Pre-dose): 5.36 10^12/L
RBC ([3]; 0.05 mg/kg, 14/18 days): 5.26 10^12/L
